Biological target: T1, wild-type DENV2 16681 prM/E expressed in HEK-293T cells (Dengue virus 2, strain 16681, UniProt P29990)
T1 construct: also called WT DENV2 E protein; wild-type prM/E
Test: flow cytometry on cells
Conditions: one partner purified

B1: F25.S02 IgG1 (antibody, V domains shown)
VH: QVQLVQSGAEVKKPGSSAKVSCKASGGTFSSYAISWVRQAPGQGLEWMGSIMPIFGTVNYAQKFQGRVTITADESTSTAYMELSRLRSEDTAVYFCARGWGGNYRSADLWIYFDLWGQGTLVTVSS
VL: QSALTQPRSVSGSPGQSVTISCTGTSSDVGGYKYVSWYQQHPGKAPKLMIYDVTKRPSGVPDRFSGSKSGNTASLTISGLQADDEADYYCCSYAGSYTHVVFGGGTKLTVL
B1: binds.
